Source: publication doi:10.1101/2025.01.14.632876v1

Substrate: NC(=O)c1ccc[n+]([C@@H]2O[C@H](COP(=O)(O)OP(=O)(O)OC[C@H]3O[C@@H](n4cnc5c(N)ncnc54)[C@H](O)[C@@H]3O)[C@@H](O)[C@H]2O)c1
Assay: purified protein
Conditions: G6PDH activity, co-substrate G6P, 2 M KCl, 100 mM Tris-HCl pH 8.5

B1: HvG6PDH (Haloferax volcanii DS2) (protein)
chain: MDQPVLLTGAGGRVGQAILGHIGDAYDWRLLDREPLSDEKIPDSVDSTEVYVADVTDETAVRNAMDGVHAVIHLAGDPRPEAPWDSVLRNNIDGTQQMFDAAVDVGVEKFAFASSNHAVGAYETTDRTPDMYRPHHEFRLDGTELPRPSNLYGVSKAAGETLGRYYHDHHDISVVNVRIGNLTQHHPPKEYERGQAMWLSYRDCGHLFECCIEADYDYEIVYGISDNDRKYYSIDRARAVLGYDPQDNSAEFTFEGEPLDEA
B1 gave a Km of 198 ± 6 µM and a kcat of 42.5 ± 0.1 s⁻¹.
